As usually defined, the stoichiometry N is a count of units in the complex or per binding partner.

Read-outs that look alike come from different tables or passages of the source.

Data on 5 molecules can be found in PMC3556572 (Biochemistry, 2012).

What all share (assay): co-sedimentation
The target in test [1] is T1, filamentous actin (F-actin), chicken skeletal muscle (chicken, UniProt P68139 1-377).
Test [2] has as its target T1, filamentous actin (F-actin), chicken …. The source holds these as a separate data set.
Test [3] shares this target. The source holds these as a separate data set.

B1: Abl2/Arg (Abelson-related gene) nonreceptor tyrosine kinase (enzyme)
chain: MGQQVGRVGEAPGLQQPQPRGIRGSSAARPSGRRRDPAGRTADAGFNVFTQHDHFASCVEDGFEGDKTGGSSPEVLHRPFGCDAESQALNEAIRWSSKENLLGATESDPNLFVALYDFVASGDNTLSITKGEKLRVLGYNQNGEWSEVRSKNGQGWVPSNYITPVNSLEKHSWYHGPVSRSAAEYLLSSLINGSFLVRESESSPGQLSISLRYEGRVYHYRINTTTDSKVYVTAESRFSTLAELVHHHSTVADGLVTTLHYPAPKCNKPTVYGVSPIHDKWEMERTDITMKHKLGGGQYGEVYVGVWKKYSLTVAVKTFKEDTMEVEEFLKEAAVMKEIKHPNLVQLLGVCTLEPPFYIVTEYMPYGNLLDYLRECSREEVTAVVLLYMATQISSAMEYLEKKNFIHRDLAARNCLVGENHVVKVADFGLSRLMTGDTYTAHAGAKFPIKWTAPESLAYNTFSIKSDVWAFGVLLWEIATYGMSPYPGIDLSQVYDLLEKGYRMEQPEGCPPKVYELMRACWKWSPADRPSFAETHQAFETMFHDSSISEEVAEELGRTASSSSVVPYLPRLPLLPSKTRTLRKQGENKENLDGGLDAAESLASSSAPAGFIRSTQASSGSPALPRKQRDKSPSSLLEDAKETCFTRDRKGGFFSSFMKKRNAPTPPKRSSSFREMENQPHKKYELTGNFSPVASLQNADGFSVAPSQQEPNLVPAKCYGGSFAQRNLCADDDSGGGGGSGTAGGGWSGITGFFTPRLIKKTLGLRAGKPTASDDTSKPFPRSNSTSSMSSGLPEQDRMAMTLPRNCQRSKLQLERTVSTSSQPEENVDRANDMLPKKSEEGAAPARERPKAKLLPRGATALPLRAPDPAITESDSPGVGVAGVAAAPKGKERNGGTRLGVAGVPEDGEQLGWSSPAKAVAVLPTTHNHKVPVLISPTLKHTPADVQLIGTDSQGNKFKLLSEHQVTSSGDKDRPRRVKPKCAPPPPPVMRLLQHPSTCSDPEEEPTAPPAGQHTPETQEGGKKAAPGPVPSSGKPGRPVMPPPQVPLPTSSISPAKMANGTAGTKVALRKTKQAAEKISADKISKEALLECADLLSSAITEPVPNSQLVDTGHQLLDYCSGYVDSIPQTRNKFAFREAVSKLELSLQELQVSSTAAGVPGTNPVLNNLLSCVQEISDVVQR
For the molecule B1, the “stoichiometry N” value in test [1] was 0.5 Arg per actin monomer.

B2: cortactin (natural protein)
chain: not shown
modifications: exhibits tyrosine phosphorylation as purified from insect cells (anti-phosphotyrosine blot); sites not mapped here
Consider B2, for which the “stoichiometry N” value in test [2] was 0.25 cortactin per actin monomer.

B3: cortactin W525A (natural protein)
chain: not shown
modifications: exhibits tyrosine phosphorylation as purified from insect cells (anti-phosphotyrosine blot); sites not mapped here
For B3, the figures for the “stoichiometry N” value in test [3] and in test [2] were 0.5 cortactin per actin monomer and 0.25 cortactin per actin monomer, respectively.

B4: cortactin W525A, enzymatically dephosphorylated (natural protein)
chain: not shown
modifications: dephosphorylated with CIP (no tyrosine phosphorylation on the anti-phosphotyrosine blot)
Consider B4, for which the “fold decrease in affinity for F-actin in the presence of saturating Arg” value in test [3] is around 3 fold.

B5: cortactin 3YF (natural protein)
chain: not shown
Take B5: in test [3], the “fold decrease in affinity for F-actin in the presence of saturating Arg” value is around 3 fold and the “stoichiometry N” value was 0.5 cortactin per actin monomer. In addition, the “stoichiometry N” value in test [2] is 0.25 cortactin per actin monomer.
